Assay [1] has as its target T1, human BR3 extracellular domain (human, UniProt Q96RJ3 1-61).
T1 construct: biotinylated where used as tracer; also called hBR3-ECD; BR3-ECD
As to the kind of experiment: SPR, BR3 ECD on chip.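 Also: Anti-BR3 antibodies passed over the chip at high flow in PBS with 0.05% polysorbate 20, on and off rates fitted together globally to a 1:1 binding model.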 For orientation: Surface plasmon resonance follows binding to a sensor surface in real time, without labels.

Assay [2] has as its target T2, variant human BR3-Fc fusion.
T2 construct: produced in CHO cells; also called vBR3-Fc; vhBR3-Fc
Description: SPR, vBR3-Fc on chip.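 Also: Anti-BR3 antibodies passed over chip-bound BR3-Fc in PBS with 0.05% polysorbate 20, on and off rates fitted together globally to a 1:1 binding model.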

The target of assay [3] is T1, human BR3 extracellular domain. Description: phage competition ELISA. For orientation: In an ELISA, binding on a coated surface is turned into a signal by an enzyme label.
Assay [4] deals with T3, mouse BR3 extracellular domain (mouse, UniProt Q9D8D0 1-64).
T3 construct: also called mBR3-ECD; mBR-ECD
T3 sequence: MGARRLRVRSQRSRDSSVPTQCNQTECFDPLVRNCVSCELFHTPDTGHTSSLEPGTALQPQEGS
Description: phage competition ELISA.

Where “and” joins values, the source holds several entries; their conditions need not be identical. Identical values can stand only once. Like-named read-outs stand apart in the source and are kept apart here.

The term Kd denotes the constant that tells how readily two partners part at equilibrium. A word on the koff: it is the rate constant with which the complex falls apart. By kon is commonly meant a measure of how fast the partners come together. Read a low kon as slow association. What is called IC50 is the concentration needed to halve the response being measured. A low value points to inhibition by little substance.

B1: Hu11G9-36 Fab (Fab, V domains shown)
VH: EVQLVESGGGLVQPGGSLRLSCAASGDSINFGYWNWVRQAPGKGLEWVGYISYSGSTYYNPSLKSRFTISRDTSKNTFYLQMNSLRAEDTAVYYCAALNDLFLYFDVWGQGTLVTVSS
VL: DIQMTQSPSSLSASVGDRVTITCRSSQSLVHSNGNTYLHWYQQKPGKAPKLLIYKVSNRFSGVPSRFSGSGSGTDFTLTISSLQPEDFATYYCSQSTHVPPFTFGQGTKVEIKR
notes: Fab
B1: in assay [1], the Kd is 0.7 nM and 0.65 nM; the koff was 0.00105 s⁻¹ and 0.000954 s⁻¹; the kon was 1.49e+06 M⁻¹ s⁻¹ and 1.47e+06 M⁻¹ s⁻¹. In assay [2], the Kd is 2.31 nM and 2.08 nM; the koff was 0.00104 s⁻¹ and 0.000968 s⁻¹; the kon is 450000 M⁻¹ s⁻¹ and 466000 M⁻¹ s⁻¹.

B2: Hu11G9-46 IgG (antibody, V domains shown)
VH: EVQLVESGGGLVQPGGSLRLSCAASGDSITSGYWNWVRQAPGKGLEWVGYISYSGSTYYNPSLKSRFTISRDTSKNTFYLQMNSLRAEDTAVYYCAGLNDLYLYFDVWGQGTLVTVSS
VL: DIQMTQSPSSLSASVGDRVTITCRSSQSLVHSNGNTYLHWYQQKPGKAPKLLIYKVSNRFSGVPSRFSGSGSGTDFTLTISSLQPEDFATYYCSQSTHVPPFTFGQGTKVEIKR
notes: humanized IgG
In the case of B2, in assay [1], binding was put at a Kd of 0.025 nM, the koff turned out to be 4.2e-05 s⁻¹ and the kon amounted to 1.66e+06 M⁻¹ s⁻¹. In assay [2], this molecule gave a Kd of 0.288 nM, a koff of 0.000186 s⁻¹ and a kon of 648000 M⁻¹ s⁻¹.

B3: Hu11G9-36 IgG (antibody, V domains shown)
VH: EVQLVESGGGLVQPGGSLRLSCAASGDSINFGYWNWVRQAPGKGLEWVGYISYSGSTYYNPSLKSRFTISRDTSKNTFYLQMNSLRAEDTAVYYCAALNDLFLYFDVWGQGTLVTVSS
VL: DIQMTQSPSSLSASVGDRVTITCRSSQSLVHSNGNTYLHWYQQKPGKAPKLLIYKVSNRFSGVPSRFSGSGSGTDFTLTISSLQPEDFATYYCSQSTHVPPFTFGQGTKVEIKR
notes: humanized IgG
Regarding B3, in assay [1], the Kd came out at 0.024 nM, the koff amounted to 4.1e-05 s⁻¹ and the kon amounted to 1.71e+06 M⁻¹ s⁻¹. In addition, in assay [2], the Kd was found to be 0.4 nM, the koff stood at 0.000231 s⁻¹ and the kon turned out to be 576000 M⁻¹ s⁻¹.

B4: 3 (Fab, V domains shown)
VH: EVQLVESGGGLVQPGGSLRLSCAASGFTISSNSIHWVRQAPGKGLEWVAWVTPSGGSTDYADSVKGRFTISADTSKNTAYLQMNSLRAEDTAVYYCARRVCYNRLGVCAGGMDYWGQGTLVTVSS
VL: DIQMTQSPSSLSASVGDRVTITCRASQDVSTAVAWYQQKPGKAPKLLIYSASFLYSGVPSRFSGSGSGTDFTLTISSLQPEDFATYYCQQSRISPPTFGQGTKVEIKR
notes: also called V3-3
As to B4, the 50% inhibitory concentration (IC50) is 1.3 nM in assay [3] and 16.1 nM in assay [4].

B5: 5 (Fab, V domains shown)
VH: EVQLVESGGGLVQPGGSLRLSCAASGFTISSSSIHWVRQAPGKGLEWVAWITPGHGSTDYADSVKGRFTISADTSKNTAYLQMNSLRAEDTAVYYCARRVCYNRLGVCAGGMDYWGQGTLVTVSS
VL: DIQMTQSPSSLSASVGDRVTITCRASQDVSTAVAWYQQKPGKAPKLLIYSASFLYSGVPSRFSGSGSGTDFTLTISSLQPEDFATYYCQQSRITPPTFGQGTKVEIKR
notes: also called V3-5
With B5, the IC50 in assay [3] stood at 2.5 nM; in assay [4], 40.9 nM.

B6: 16 (Fab, V domains shown)
VH: EVQLVESGGGLVQPGGSLRLSCAASGFSISSNSIHWVRQAPGKGLEWVAWITPTHGSTDYADSVKGRFTISADTSKNTAYLQMNSLRAEDTAVYYCARRVCYNRLGVCAGGMDYWGQGTLVTVSS
VL: DIQMTQSPSSLSASVGDRVTITCRASQDVSTAVAWYQQKPGKAPKLLIYSASFLYSGVPSRFSGSGSGTDFTLTISSLQPEDFATYYCQQSRITPPTFGQGTKVEIKR
notes: also called V3-16
Consider B6, for which the IC50 stood at 1.7 nM in assay [3] and 16.8 nM in assay [4].

B7: 19 (Fab, V domains shown)
VH: EVQLVESGGGLVQPGGSLRLSCAASGFSIARSSIHWVRQAPGKGLEWVAWILPSAGSTDYADSVKGRFTISADTSKNTAYLQMNSLRAEDTAVYYCARRVCYNRLGVCAGGMDYWGQGTLVTVSS
VL: DIQMTQSPSSLSASVGDRVTITCRASQDVSTAVAWYQQKPGKAPKLLIYSASFLYSGVPSRFSGSGSGTDFTLTISSLQPEDFATYYCQQSRITPPTFGQGTKVEIKR
notes: also called V3-19
For B7, the values for the IC50 in assay [3] and in assay [4] were 1.3 nM and 1.8 nM, respectively.

B8: 24 (Fab, V domains shown)
VH: EVQLVESGGGLVQPGGSLRLSCAASGFSIRSISIHWVRQAPGKGLEWVAWITPFNGTTDYADSVKGRFTISADTSKNTAYLQMNSLRAEDTAVYYCARRVCYNRLGVCAGGMDYWGQGTLVTVSS
VL: DIQMTQSPSSLSASVGDRVTITCRASQDVSTAVAWYQQKPGKAPKLLIYSASFLYSGVPSRFSGSGSGTDFTLTISSLQPEDFATYYCQQSLITPPTFGQGTKVEIKR
notes: also called V3-24
As for B8, the IC50 in assay [3] is 0.6 nM; in assay [4], 23 nM.

B9: 9 (Fab, V domains shown)
VH: EVQLVESGGGLVQPGGSLRLSCAASGFTISSNSIHWVRQAPGKGLEWVAWITPSDGNTDYADSVKGRFTISADTSKNTAYLQMNSLRAEDTAVYYCARRVCYNRLGVCAGGMDYWGQGTLVTVSS
VL: DIQMTQSPSSLSASVGDRVTITCRASQDVSTAVAWYQQKPGKAPKLLIYSASFLYSGVPSRFSGSGSGTDFTLTISSLQPEDFATYYCQQSHNTPPTFGQGTKVEIKR
notes: also called V3-9
On to B9, for which the IC50 is 11.6 nM in assay [3] and 6.1 nM in assay [4].

B10: chimeric 9.1 Fab (Fab, V domains shown)
VH: EVKLVESGGGLVQPGGSLRLSCAISGFTVTAYYMSWVRQPPGKALEWLGFIRDKANGYTTEYNPSVKGRFTISRDNSQSIFYLQMNTLRAEDSATYYCAQVRRALDYWGQGTTVTVSA
VL: DIVMSQSPSSLAVSVGEKVTMSCKSSQSLLYSSNQNNYLAWYQQKPGQSPKLLIYWASTRESGVPDRFTGSGSGTDFTLTISSVKAEDLAVYYCQQYYTYPYTFGGGT
notes: Fab with murine variable domains; also called Ch 9.1 Fab
Regarding B10, the Kd was 20 nM in assay [2] (140 RU BR3-Fc immobilized) and 21.8 nM in assay [2] (380 RU BR3-Fc immobilized).

B11: Hu2.1-46 Fab (Fab, V domains shown)
VH: EVQLVESGGGLVQPGGSLRLSCAASGDSITRGYWNWVRQAPGKGLEWVGYINYSGTTYYNPSLKSRFTISRDTSKNTFYLQMNSLRAEDTAVYYCANSNFYGAMDYWGQGTLVTVSS
VL: DIQMTQSPSSLSASVGDRVTITCRASESVDDYGISFMHWYQQKPGKAPKLLIYRASDLESGVPSRFSGSGSGTDFTLTISSLQPEDFATYYCQQTSKDPWTFGQGTKVEIKR
notes: Fab
Take B11: in assay [1], the Kd was found to be 0.27 nM, the koff was 0.000693 s⁻¹ and the kon amounted to 2.55e+06 M⁻¹ s⁻¹. In addition, in assay [2], the Kd amounted to 0.13 nM, the koff amounted to 0.000257 s⁻¹ and the kon amounted to 1.96e+06 M⁻¹ s⁻¹.

B12: Hu2.1-30 Fab (Fab, V domains shown)
VH: EVQLVESGGGLVQPGGSLRLSCAASGDSITRGYWNWVRQAPGKGLEWVGYINYSGTTYYNPSLKSRFTISRDTSKNTFYLQMNSLRAEDTAVYYCANLNYYGAMDYWGQGTLVTVSS
VL: DIQMTQSPSSLSASVGDRVTITCRASESVDDYGISFMHWYQQKPGKAPKLLIYRASDLESGVPSRFSGSGSGTDFTLTISSLQPEDFATYYCQQTSKDPWTFGQGTKVEIKR
notes: Fab
On to B12, for which, in assay [1], the Kd was 0.08 nM and 0.059 nM; the koff is 0.000311 s⁻¹ and 0.000232 s⁻¹; the kon is 3.84e+06 M⁻¹ s⁻¹ and 3.94e+06 M⁻¹ s⁻¹. In addition, in assay [2], the Kd was 0.07 nM and 0.092 nM; the koff was 0.000157 s⁻¹ and 0.000222 s⁻¹; the kon is 2.18e+06 M⁻¹ s⁻¹ and 2.41e+06 M⁻¹ s⁻¹.

B13: Hu2.1-RL Fab (Fab, V domains shown)
VH: EVQLVESGGGLVQPGGSLRLSCAASGDSITRGYWNWVRQAPGKGLEWVGYINYSGTTYYNPSLKSRFTISRDTSKNTLYLQMNSLRAEDTAVYYCATPHTYGAMDYWGQGTLVTVSS
VL: DIQMTQSPSSLSASVGDRVTITCRASESVDDYGISFMHWYQQKPGKAPKLLIYRASDLESGVPSRFSGSGSGTDFTLTISSLQPEDFATYYCQQTSKDPWTFGQGTKVEIKR
notes: Fab
As to B13, in assay [1], binding was characterised by a dissociation constant (Kd) of 10 nM, the koff was found to be 0.00176 s⁻¹ and the kon was 180000 M⁻¹ s⁻¹. For the same molecule, in assay [2], the dissociation constant Kd amounted to 11.2 nM, the koff was determined as 0.00139 s⁻¹ and the kon stood at 120000 M⁻¹ s⁻¹.

B14: Hu2.1-40 Fab (Fab, V domains shown)
VH: EVQLVESGGGLVQPGGSLRLSCAASGDSITRGYWNWVRQAPGKGLEWVGYINYSGTTYYNPSLKSRFTISRDTSKNTFYLQMNSLRAEDTAVYYCATTLPYGAMDYWGQGTLVTVSS
VL: DIQMTQSPSSLSASVGDRVTITCRASESVDDYGISFMHWYQQKPGKAPKLLIYRASDLESGVPSRFSGSGSGTDFTLTISSLQPEDFATYYCQQTSKDPWTFGQGTKVEIKR
notes: Fab
In assay [1], B14 gave a Kd of 8.67 nM, a koff of 0.000923 s⁻¹ and a kon of 110000 M⁻¹ s⁻¹. In assay [2], this molecule returned a Kd of 3.2 nM, a koff of 0.00123 s⁻¹ and a kon of 380000 M⁻¹ s⁻¹.

B15: Hu2.1-40L Fab (Fab, V domains shown)
VH: EVQLVESGGGLVQPGGSLRLSCAASGDSITRGYWNWVRQAPGKGLEWVGYINYSGTTYYNPSLKSRFTISRDTSKNTLYLQMNSLRAEDTAVYYCATTLPYGAMDYWGQGTLVTVSS
VL: DIQMTQSPSSLSASVGDRVTITCRASESVDDYGISFMHWYQQKPGKAPKLLIYRASDLESGVPSRFSGSGSGTDFTLTISSLQPEDFATYYCQQTSKDPWTFGQGTKVEIKR
notes: Fab
In assay [1], B15 showed a Kd of 35.8 nM, a koff of 0.00156 s⁻¹ and a kon of 40000 M⁻¹ s⁻¹. In assay [2], the Kd is 3.49 nM, the koff stood at 0.00121 s⁻¹ and the kon is 350000 M⁻¹ s⁻¹.

B16: Hu2.1-94 Fab (Fab, V domains shown)
VH: EVQLVESGGGLVQPGGSLRLSCAASGDSITRGYWNWVRQAPGKGLEWVGYINYSGTTYYNPSLKSRFTISRDTSKNTLYLQMNSLRAEDTAVYYCATSHNTGEMDYWGQGTLVTVSS
VL: DIQMTQSPSSLSASVGDRVTITCRASESVDDYGISFMHWYQQKPGKAPKLLIYRASDLESGVPSRFSGSGSGTDFTLTISSLQPEDFATYYCQQTSKDPWTFGQGTKVEIKR
notes: Fab
In assay [1], B16 displayed a Kd of 0.82 nM, a koff of 0.00114 s⁻¹ and a kon of 1.39e+06 M⁻¹ s⁻¹. In assay [2], this molecule returned a Kd of 1.67 nM, a koff of 0.000804 s⁻¹ and a kon of 480000 M⁻¹ s⁻¹.
